Assay results: CN116082499A (DONGGUAN PENGZHI BIOTECHNOLOGY CO LTD, dated 2023)

Assays:
[1] = biological target: T1, DENV-IV抗原(一种NS1蛋白，购自菲鹏) (dengue virus serotype 4 (DENV-IV), UniProt P09866 775-1126, limits assumed)
T1 construct: also called DENV-IV antigen
T1 sequence (looked up): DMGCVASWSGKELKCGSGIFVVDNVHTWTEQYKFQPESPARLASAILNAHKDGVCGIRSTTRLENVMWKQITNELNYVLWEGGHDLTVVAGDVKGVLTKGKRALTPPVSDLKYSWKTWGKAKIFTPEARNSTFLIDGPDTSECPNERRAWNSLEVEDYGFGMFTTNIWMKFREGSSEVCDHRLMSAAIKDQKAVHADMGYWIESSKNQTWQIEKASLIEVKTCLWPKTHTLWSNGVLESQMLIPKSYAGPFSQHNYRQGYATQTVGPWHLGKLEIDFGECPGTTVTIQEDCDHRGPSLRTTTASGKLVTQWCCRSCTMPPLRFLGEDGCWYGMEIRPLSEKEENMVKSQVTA

[2] = biological target: T2, DENV抗原 (DENV阳性血清) (dengue virus (DENV), serotype ); assay: sandwich ELISA, antibody at 12.5 ng/ml captured on goat anti-mouse IgG, DENV-positive serum, HRP-labelled DENV mAb
T2 construct: also called DENV antigen in DENV-positive serum

[3] = biological target: T2, DENV抗原 (DENV阳性血清); assay: sandwich ELISA, antibody at 6.25 ng/ml captured on goat anti-mouse IgG, DENV-positive serum, HRP-labelled DENV mAb
[4] = biological target: T2, DENV抗原 (DENV阳性血清); assay: sandwich ELISA, antibody at 3.125 ng/ml captured on goat anti-mouse IgG, DENV-positive serum, HRP-labelled DENV mAb
[5] = biological target: T2, DENV抗原 (DENV阳性血清); assay: sandwich ELISA, antibody at 1.5625 ng/ml captured on goat anti-mouse IgG, DENV-positive serum, HRP-labelled DENV mAb
[6] = biological target: T2, DENV抗原 (DENV阳性血清); assay: sandwich ELISA, antibody at 0.78125 ng/ml captured on goat anti-mouse IgG, DENV-positive serum, HRP-labelled DENV mAb
[7] = biological target: T2, DENV抗原 (DENV阳性血清); assay: sandwich ELISA, antibody at 0 ng/ml (blank without antibody), goat anti-mouse IgG, DENV-positive serum, HRP-labelled DENV mAb

| Binder | Kd [1] | koff [1] | kon [1] | OD (450nm, 参考630nm) [2] | OD (450nm, 参考630nm) [3] | OD (450nm, 参考630nm) [4] | OD (450nm, 参考630nm) [5] | OD (450nm, 参考630nm) [6] | OD (450nm, 参考630nm) [7] |
| --- | --- | --- | --- | --- | --- | --- | --- | --- | --- |
| DF-5M32RMb1 (antibody, mouse IgG1, kappa, V domains shown, also called Anti-DF 5M32; Anti-DF 5M32单克隆抗体 (recombinant)) VH: QVQLQQSGAELARPGASVKLSCKASGYTFINYWMQWVKQRPGQGLEWIGAIYPGDGDTRYTQNFKGKAALTADKSSSTAYMQLSSLASEDSAVYYCATGTEGILDYWGQGTSVTVSS VL: DAVMTQTPLTLSVLIGQPASLSCKSSQSLLESDGKTYLNWLFQRPGQSPKRLIYLVSKLESGVPDRFTGSGSGTEFTLKISRVEAEDLGVYYCWQATHHPLTFGTGTNLELKR | 59.6 nM | 0.00128 s⁻¹ | 21400 M⁻¹ s⁻¹ | 2.1 OD | 1.52 OD | 0.963 OD | 0.654 OD | 0.489 OD | 0.039 OD |
| DF-5M32RMb3 (antibody, mouse IgG1, kappa, V domains shown, also called DF-8F13RMb3) VH: QVQLQQSGAELARPGASVKLSCKASGYTFLNYWMQWVKQRPGQGLEWIGAIYPGDGDTRYTQNFKGKAALTADKSSSTAYMQLSSLASEDSAVYYCATGTEGILDYWGQGTSVTVSS VL: DAVMTQTPLTLSVLIGQPASLSCKSSQSLLESDGKTYLNWLFQRPGQSPKRLIYLVSKLESGVPDRFTGSGSGTEFTLKISRVEAEDLGVYYCWQATHHPLTFGTGTNLELKR | 63.6 nM | 0.00186 s⁻¹ | 29300 M⁻¹ s⁻¹ | 1.97 OD | 1.5 OD | 0.952 OD | 0.622 OD | 0.479 OD | 0.043 OD |
| DF-5M32RMb4 (antibody, mouse IgG1, kappa, V domains shown, also called DF-8F13RMb4) VH: QVQLQQSGAELARPGASVKLSCKASGYTFINYWMQWVKQRPGQGLEWIGAIYPGDGDTRYTQNFKGKAALTADKSSSTAYMQLSSLASEDSAVYYCATGTEGLLDYWGQGTSVTVSS VL: DAVMTQTPLTLSVLIGQPASLSCKSSQSLLESDGKTYLNWLFQRPGQSPKRLIYLVSKLESGVPDRFTGSGSGTEFTLKISRVEAEDLGVYYCWQATHHPLTFGTGTNLELKR | 52.9 nM | 0.00176 s⁻¹ | 33200 M⁻¹ s⁻¹ | 2.01 OD | 1.49 OD | 0.923 OD | 0.631 OD | 0.482 OD | 0.032 OD |
| DF-5M32RMb2 (antibody, mouse IgG1, kappa, V domains shown, also called DF-8F13RMb2) VH: QVQLQQSGAELARPGASVKLSCKASGYTFLNYWMQWVKQRPGQGLEWIGAIYPGDGDTRYTQNFKGKAALTADKSSSTAYMQLSSLASEDSAVYYCATGTEGLLDYWGQGTSVTVSS VL: DAVMTQTPLTLSVLIGQPASLSCKSSQSLLESDGKTYLNWLFQRPGQSPKRLIYLVSKLESGVPDRFTGSGSGTEFTLKISRVEAEDLGVYYCWQATHHPLTFGTGTNLELKR | 57.8 nM | 0.00184 s⁻¹ | 31900 M⁻¹ s⁻¹ | 2.04 OD | 1.47 OD | 0.96 OD | 0.603 OD | 0.471 OD | 0.031 OD |
